Several values for one entry are separate records, joined by “and”; a condition that tells them apart may be missing. Identical values can stand only once.
Biological target: the molecule itself
Test: cryo-EM structure; single-particle analysis of the defined assemblies from SEC with localized reconstruction (O, C4, C1); 201phi2-1 about 4 µM monomer, Goslar about 33 µM monomer

B1: Goslar chimallin (gp189), full length, recombinant (natural protein, bacteriophage Goslar, UniProt A0A482GDX1 1-631, looked up)
chain: MGLDVRNNGNDNVEIRAAETRTAQRADEALETAADFAGQPKVTHTMRTINRTLSRRISRNTGSEQVLNLRRLMEKYLEDTRFKDDFIFVAVDPNQYSVPYPTLVVMSGAKVGDHNHFFGYVLPLVAGLAPLPRREEQGPHGNILVPRTWVDNLNGTFINEVMAAMYAAIGGKSNGTARIAGLAVVTNEITAESAHLATTLLSAADNAIQTAIEIRLGDKLGLPQFNLGMMASDQPISSVQYNTSGMQDSDIVGNPVRSDITVTISNRIRQAMSDYDSQQRLVATTGYIDLTYSPQNPTFNQGPVLVNGYPVPPTVQYQPRYVMTSAYPLELDAFTPNTFVLGLIGTIATLNSGMAWAQSLISNAARGIGPHNPGALAMVLDPEVTAPLDLSTQTNEQIYKFLQQVLYPSLLISIDVPEEGEYSWLLRMIPAAEKIYTGKVEGEVREISEGYKALYRAFDDVTLGCFSKKYQYGLPLVYATGNRIPLGHYNHQDGHRHDIRDMDDLYMMNITNPDTVEAWEDSFDRTDMTMSQRVVARHEIIDRVLSGSWEQTGWAMRYDFDPLALQALIEAAADAGFTIRPENIQHLAGTAVRGNMAARARGLGNISGNIYARSDRPNVGVNNMGGAFNLF
notes: Chimallin (gp189) of E. coli jumbo bacteriophage Goslar, 631 amino acids, NCBI YP_009820873.1; Cloned in UC Berkeley Macrolab vector 2-BT (Addgene #29666) with a TEV-cleavable His6 tag; tag removed before SEC; not shown: His6, N-terminal, cleaved
  stoichiometry N: 24 protomers

B2: 201phi2-1 chimallin (gp105), full length, recombinant (natural protein, bacteriophage 201phi2-1, UniProt B3FIW8 1-631, looked up)
chain: MIRDTATNTTQTQAAPQQAPAQQFTQAPQEKPMQSTQSQPTPSYAGTGGINSQFTRSGNVQGGDARASEALTVFTRLKEQAVAQQDLADDFSILRFDRDQHQVGWSSLVIAKQISLNGQPVIAVRPLILPNNSIELPKRKTNIVNGMQTDVIESDIDVGTVFSAQYFNRLSTYVQNTLGKPGAKVVLAGPFPIPADLVLKDSELQLRNLLIKSVNACDDILALHSGERPFTIAGLKGQQGETLAAKVDIRTQPLHDTVGNPIRADIVVTTQRVRRNGQQENEFYETDVKLNQVAMFTNLERTPQAQAQTLFPNQQQVATPAPWVASVVITDVRNADGIQANTPEMYWFALSNAFRSTHGHAWARPFLPMTGVAKDMKDIGALGWMSALRNRIDTKAANFDDAQFGQLMLSQVQPNPVFQIDLNRMGETAQMDSLQLDAAGGPNAQKAAATIIRQINNLGGGGFERFFDHTTQPILERTGQVIDLGNWFDGDEKRDRRDLDNLAALNAAEGNENEFWGFYGAQLNPNLHPDLRNRQSRNYDRQYLGSTVTYTGKAERCTYNAKFIEALDRYLAEAGLQITMDNTSVLNSGQRFMGNSVIGNNMVSGQAQVHSAYAGTQGFNTQYQTGPSSFY
notes: Cloned in UC Berkeley Macrolab vector 2-BT (Addgene #29666) with a TEV-cleavable His6 tag; tag removed before SEC; also called ChmA; FL; not shown: His6, N-terminal, cleaved
  stoichiometry N: 24 protomers and 40 protomers
